Publication PMC9188544, “Mechanism of glycogen synthase inactivation and interaction with glycogenin” (Nature Communications, 2022)

Tests used:
[1] = target: T1, human glycogen synthase 1 (GS1) Y600A (human, UniProt P13807 1-737, Y600A, phosphorylation at S8, S641 and S641/S645 probed by immunoblot (Fig. 4b)); assay: co-purification (HisTrap, TEV cleavage, Ni subtraction, Superdex200 gel filtration); GS WT or mutant co-expressed with GN(Y195F) in insect cells, both with N-terminal His6-TEV; lysate loaded on the HisTrap column; conditions: partners not purified
T1 construct: glycogen synthase 1 (muscle), human, encoded by GYS1, cDNA NM 002103; also called GS Y600A; not shown: His6, N-terminal, cleaved
T1 sequence (looked up): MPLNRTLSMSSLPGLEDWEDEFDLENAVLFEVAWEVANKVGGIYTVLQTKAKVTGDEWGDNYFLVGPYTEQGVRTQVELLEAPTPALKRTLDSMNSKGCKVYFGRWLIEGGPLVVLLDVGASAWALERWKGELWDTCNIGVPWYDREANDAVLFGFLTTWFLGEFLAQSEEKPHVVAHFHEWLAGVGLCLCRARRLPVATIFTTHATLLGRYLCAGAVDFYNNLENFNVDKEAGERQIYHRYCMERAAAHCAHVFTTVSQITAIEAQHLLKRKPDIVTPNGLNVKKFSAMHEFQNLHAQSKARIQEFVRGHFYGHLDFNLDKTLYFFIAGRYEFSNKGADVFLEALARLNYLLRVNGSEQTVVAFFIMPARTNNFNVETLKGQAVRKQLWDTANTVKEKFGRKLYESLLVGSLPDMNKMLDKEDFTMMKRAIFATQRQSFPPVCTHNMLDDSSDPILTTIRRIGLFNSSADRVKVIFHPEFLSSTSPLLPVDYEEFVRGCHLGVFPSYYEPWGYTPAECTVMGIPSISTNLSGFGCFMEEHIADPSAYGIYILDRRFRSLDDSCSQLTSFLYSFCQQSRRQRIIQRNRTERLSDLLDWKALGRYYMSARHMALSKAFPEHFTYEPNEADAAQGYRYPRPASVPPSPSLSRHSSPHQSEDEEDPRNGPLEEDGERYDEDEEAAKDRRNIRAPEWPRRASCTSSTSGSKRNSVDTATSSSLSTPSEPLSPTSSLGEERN

[2] = target: T2, human glycogen synthase 1 (GS1), wild type, pFastBac construct with N-terminal His6-TEV, co-expressed with … (human, UniProt P13807 1-737, phosphorylation at S8, S641 and S641/S645 probed by immunoblot (Fig. 4b)); assay: as above; conditions: partners not purified
T2 construct: glycogen synthase 1 (muscle), human, encoded by GYS1, cDNA NM 002103; also called GS WT; WT GS; not shown: His6, N-terminal, cleaved
T2 sequence (looked up): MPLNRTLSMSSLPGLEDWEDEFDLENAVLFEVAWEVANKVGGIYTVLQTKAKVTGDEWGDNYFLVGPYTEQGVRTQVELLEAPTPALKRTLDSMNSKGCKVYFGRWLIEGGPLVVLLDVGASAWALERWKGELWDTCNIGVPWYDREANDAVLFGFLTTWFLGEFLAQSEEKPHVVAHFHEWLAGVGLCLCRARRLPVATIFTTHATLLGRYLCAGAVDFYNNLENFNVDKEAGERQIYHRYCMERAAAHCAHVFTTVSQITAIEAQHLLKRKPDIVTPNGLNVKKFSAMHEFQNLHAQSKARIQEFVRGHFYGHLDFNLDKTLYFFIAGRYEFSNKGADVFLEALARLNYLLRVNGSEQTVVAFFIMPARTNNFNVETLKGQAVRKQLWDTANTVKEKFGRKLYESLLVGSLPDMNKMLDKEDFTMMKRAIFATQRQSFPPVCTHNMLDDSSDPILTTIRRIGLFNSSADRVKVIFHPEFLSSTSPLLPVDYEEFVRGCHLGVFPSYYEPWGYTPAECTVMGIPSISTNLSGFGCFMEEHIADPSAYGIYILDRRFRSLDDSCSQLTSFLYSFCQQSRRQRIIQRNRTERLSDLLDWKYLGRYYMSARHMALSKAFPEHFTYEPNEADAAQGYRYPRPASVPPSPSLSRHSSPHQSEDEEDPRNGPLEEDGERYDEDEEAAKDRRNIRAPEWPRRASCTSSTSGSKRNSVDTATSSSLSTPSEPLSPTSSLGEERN

[3] = target: T3, human glycogen synthase 1 (GS1) H610E (human, UniProt P13807 1-737, H610E, phosphorylation at S8, S641 and S641/S645 probed by immunoblot (Fig. 4b)); assay: as above; conditions: partners not purified
T3 construct: glycogen synthase 1 (muscle), human, encoded by GYS1, cDNA NM 002103; also called GS H610E; not shown: His6, N-terminal, cleaved
T3 sequence (looked up): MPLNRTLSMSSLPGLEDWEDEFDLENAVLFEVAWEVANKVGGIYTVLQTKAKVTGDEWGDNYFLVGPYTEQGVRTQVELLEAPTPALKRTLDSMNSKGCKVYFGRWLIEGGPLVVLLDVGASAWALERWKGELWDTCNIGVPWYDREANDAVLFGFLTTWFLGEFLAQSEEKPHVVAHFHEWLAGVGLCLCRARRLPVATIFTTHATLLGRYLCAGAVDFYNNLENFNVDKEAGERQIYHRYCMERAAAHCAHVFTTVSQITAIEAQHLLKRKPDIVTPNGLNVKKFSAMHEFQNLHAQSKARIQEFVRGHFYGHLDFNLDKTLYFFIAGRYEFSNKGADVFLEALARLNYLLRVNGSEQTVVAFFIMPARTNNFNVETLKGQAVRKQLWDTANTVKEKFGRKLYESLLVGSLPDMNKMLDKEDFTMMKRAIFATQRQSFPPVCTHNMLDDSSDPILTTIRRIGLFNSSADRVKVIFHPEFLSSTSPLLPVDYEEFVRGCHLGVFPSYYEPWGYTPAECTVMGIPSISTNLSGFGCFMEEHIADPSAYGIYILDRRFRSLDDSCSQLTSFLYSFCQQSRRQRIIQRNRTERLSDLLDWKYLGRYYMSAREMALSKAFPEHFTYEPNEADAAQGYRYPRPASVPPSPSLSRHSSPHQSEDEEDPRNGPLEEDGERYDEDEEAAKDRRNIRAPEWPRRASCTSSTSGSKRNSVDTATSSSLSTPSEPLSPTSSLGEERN

[4] = target: the molecule itself; assay: negative-stain electron microscopy; purified co-expressed complex at 0.01-0.02 mg/mL in 25 mM HEPES pH 7.5, 150 mM NaCl, 1 mM TCEP, 10% glycerol; uranyl acetate stain; 2D classes and 3D map (C1, ~22 Å)

B1: human glycogenin 1 (GN1) Y195F, full length, non-glucosylated (enzyme, UniProt P46976-2 1-333, looked up)
chain: MTDQAFVTLTTNDAYAKGALVLGSSLKQHRTTRRLVVLATPQVSDSMRKVLETVFDEVIMVDVLDSGDSAHLTLMKRPELGVTLTKLHCWSLTQYSKCVFMDADTLVLANIDDLFDREELSAAPDPGWPDCFNSGVFVYQPSVETYNQLLHLASEQGSFDGGDQGILNTFFSSWATTDIRKHLPFIYNLSSISIFSYLPAFKVFGASAKVVHFLGRVKPWNYTYDPKTKSVKSEAHDPNMTHPEFLILWWNIFTTNVLPLLQQFGLVKDTCSYVNVEDVSGAISHLSLGEIPAMAQPFVSSEERKERWEQGQADYMGADSFDNIKRKLDTYLQ
notes: glycogenin 1, human, encoded by GYG1, cDNA NM 001184720, full length; expected ~37.5 kDa; the C-terminal GN34 region is modelled as residues 300-332, which fits the 333-residue isoform; Cloned in pFL (with untagged GS) and in pFastBac (co-infected with His6-TEV-GS WT or mutants); Both carry an N-terminal His6 tag and a cleavable site, so they are treated as one molecule; also called GN(Y195F); GN …
B1: binds [1]; binds [2]; binds [3]. For the same binder, the “stoichiometry N” value [4] was 2.
